Reference: article doi:10.1101/2025.01.27.635082 (bioRxiv, 2025)

Target: the molecule itself
Assay: SEC

Protein | stoichiometry N
human phosphomannomutase 2 (hPMM2) (enzyme) MAAPGPALCLFDVDGTLTAPRQKITKEMDDFLQKLRQKIKIGVVGGSDFEKVQEQLGNDVVEKYDYVFPENGLVAYKDGKLLCRQNIQSHLGEALIQDLINYCLSYIAKIKLPKKRGTFIEFRNGMLNVSPIGRSCSQEERIEFYELDKKENIRQKFVADLRKEFAGKGLTFSIGGQISFDVFPDGWDKRYCLRHVENDGYKTIYFFGDKTMPGGNDHEIFTDPRTMGYSVTAPEDTRRICELLFS | 2
mouse phosphomannomutase 2 (Pmm2) (enzyme, UniProt Q9Z2M7 1-242, looked up) MATLCLFDMDGTLTAPRQKITEEMDGFLQKLRQKTKIGVVGGSDFEKLQEQLGNDVVEKYDYVFPENGLVAYKDGKLLCKQNIQGHLGEDVIQDLINYCLSYIANIKLPKKRGTFIEFRNGMLNVSPIGRSCSQEERIEFYELDKKEHIRQKFVADLRKEFAGKGLTFSIGGQISIDVFPEGWDKRYCLRHLEHAGYKTIYFFGDKTMPGGNDHEIFTDPRTVGYTVTAPEDTRRICEGLFP | 2
